The series concerns the molecule itself. The series can be described thus: native gel or EMSA; FLAG-SAF-A cross-linked in cells with 1 mM DTME, immuno-purified, cross-links reversed with 10 mM DTT, incubated 30 min at 37°C with 1 mM ATP or ATPγS, RNase A/T1 or apyrase (the last two promoted monomerization); native PAGE and western blot. A general note: A gel shift assay detects complexes by their altered migration in electrophoresis.

B1: full-length FLAG-tagged SAF-A (293T) (natural protein)
chain: not shown
notes: SAF-A (HNRNP-U), human cDNA from Genome Cube; Modified pcDNA5/FRT vector; also called FLAG-SAF-A; 3xFLAG-SAF-A; source: 293T, expressed, cross-linked in cells, immuno-purified (anti-FLAG M2 agarose, 3xFLAG peptide elution); not shown: 3xFLAG, N-terminal, kept
In the case of B1, the binding result is listed as “binds”.

For the origin of these results see article PMC5473940, “SAF-A Regulates Interphase Chromosome Structure through Oligomerization with Chromatin-Associated RNAs” (Cell, 2017).
